This series can be described thus: label from the status in PepcDB records.
As for “MNKEALVNRLNASAKRQKADIVIKNGKIMDVYNQEWIYEDIAITDGVIVGLGEYEGENIIDAEGQMIVPGFIDGHVHIESSMVTPIEFAKAVLPHGVTTVVTDPHEIANVSGEKGIEFMLEQARHTPLNIHFMLPSSVPAASFERSGAILKAADLKPFYEEEEVLGLAEVMDYVSVQQAEKDMVQKLLDARVAGKRIDGHLAGLSTDLINIYRTAFVLNDHEVTSKEEALDRIRRGMYVMMREGSVAKNTLNVLPAVNEKNRTPVFFCTDDKHVDDLLSEGSVNHQVKMAIQAGLNPFLAYQLGSLNAAECYGLDTKGAIAPGFDADLLFVSDLENVTVTMTMVKGQTVAEDSKAVYQDHASTAAPDQALLDSVKLAAPLNKQDFHMPIDSEQQINVIQIIPNQLETRLVQVPAPVAREFEPDTELDLLKIAVVERHKGLKETGLGVVKGFGFKSGAIATTISHDSHNIIAVGTNDEDIAAAVNKLQEIGGGLTIIKNGEELHSVPLPIAGLLSDQSAEQVNQSLLTLHDKLSLIGFTGGFNPFLTLSFLALPVIPDIKMTTTGLFDVKSFQHISLQLEHHHHHH”, the protein production entry is listed as “not failed”.

Take “MNKEEQEDPQQEQISTVQENDPRNLQQLGMLLVSPGLDEDRLSEKMISKIKKSRDIEKNQKLLISRLSQKEEDHSGKPPTITTSPAEKTVPFKSLNHSLKRKRVPPALNFSDIQASSHLHGSKSAPPNITRFPQHKNSLRVRYMGRMAPTNQDYHPSVANSYMTATYPYPYTGLPPVPCYPYSSTPTQTHAYEGYYSPMYPGPLYNNGIIPADYHAKRKKLAGRSPHLEDLTSRKRTFVSKHHNGDPIISKTDEDIECSVTKNSLSEGASLNDDADDDNDKERIIIGEISLYDDVFKFEVRDDKNDYMKACETIWTEWHNLKK”: the protein production result is reported as “failed”. As for “MNKFIKYFLILLSFGLLVVPIIFATQLYQSSESAFESSQNTKDSQRKSTLRDSKVDPEKQPISILFLGIDDNEGREKNGQSVEHSRSDAMILSTFNQKKHQIRMLSIPRDTISYIPKVGYYDKITHAHAYGGPLAAMDSVEATMNVPVDYYVRINMKAFVEAVDELGGIYYDVPYNLNEPNSDDTGRIKIKKGYQKLNGDQALAVARTRHHDSDLKRGQRQMELIKILFQKAQNLKSIDKLDNVISIVGKNAKHNLTQKEIKSLAKMYLGGSTEIKTSQLKGKDDYLNDIYYYHPSVKSIMEYSNLLRNDLDLSKITNKNDFLDQRVIKRYGSLVPLTELDEDLLRKNQKESTDSQKESDSSSQNNDEEDQTNEQTDQNSLNGNEQYPNQQDNNQTNGENGMINNDNYPYAQ”, the entry is “failed”.

Take “MNKKRMIAMVSTALLVTGCAEVGNAQTVAVENSGQSVQKNIVKSIQSQANPLKTIEPSKPFEDLKPLKKMIGNAQYVGLGENTHGSSEIFTMKFRLVKYLVTEMGFTNFAMEEDWGNGLKLNEYIQTGKGNPREFLKLLYPTDEIIAMIEWMKDYNADPSNKKKIQFIGLDLKALDQGSFNKVIDYVRLHRPDLLAEVEENYKELSSFTGSIQEYMKLTPKLKEKFKANAERVARLLKDENEQANTEIIPSEYIWAKATASAIEKFTTMLLPNDYPSIIKLHEQYLADHAMWAQETFGGKTMVWAHNIHIAKGIIDEKLYPYVAGQFLKERLDNNYVTIGSTTTEGNFTLYSEYNPSTGGKITTDTIPQDVKSFNYTLGKVPYKMFLLDNRHLKGQAEKWVKAKRPLLSIGGQILPNSSVYFDTSLLEQFDIIFHIRKTSPSHIKLEHHHHHH”: the protein production entry is “not failed”. The entry for “MNKNILFLSLMALPVFAFAENNLVLPTITVSAEQQVQSYAADRLNKQAALGSLGEKSVLDTPFSLVSYSDVMIRDQQASTVSEVLRADPSIRETTNAGHLNENLQIRGFTVGFEDYNINGLYGMSPSGRIPTDILDHVTLLEGPNALVAGMAPAGSVGGVVMAQTKRATKDL” is “failed”; for “MNKNTWIIGFTLFAMFFGAGNLIFPTQLGLESGHFFWPAILAFALTGIGLPLLGVVVGALDKHGYIGSFNKISPRFSLIFLIIIYLTIGPLFAIPRTASTSFEMSVTPIAQNSGNLALFIFTVIYFLIVLYLCLNPNKMIDRIGSLLTPLLLITIVAMIIKGFVDFSGHSSNYGMTNAYHSNLSGFSQGFTQGYLTMDAIASIAFSMIVVNAIKTTGIQHADKIFKQTIIAGLIAAIALVFIYISLGYIGNHINIPSDTLKELKAKDQNIGTYLLTTMATKGFGTFGKYLLGIIVSLACLTTACGLIVSVSEYFHRILPKIPYKVFVIFFILVSFILANQGLNSVIKMSVPVLSVIYPVAITVILLILIARFIPTKRIAQQIPLIIVAIESILSLITTQGWIRISFIDDLPLKEYSLEWFPIAVVATLVGYMISYFVKQSNIVYQKE” it is “failed”. “MNKQIDLPIADVQGSLDTRHIAIDRVGIKAIRHPVVVADKGGGSQHTVAQFNMYVNLPHNFKGTHMSRFVEILNSHEREISVESFEEILRSMVSRLESDSGHIEMAFPYFINKSAPVSGVKSLLDYEVTFIGEIKHGNQYSFTMKVIVPVTSLCPCSKKISDYGAHNQRSHVTISVRTNSFIWIEDIIRIAEEQASCELYGLLKRPDEKYVTERAYNNPKFVEDIVRDVAEVLNHDDRIDAYIVESENFESIHNHSAYALIERDKRIR”: the protein production result is recorded as “not failed”. Consider “MNKRCEEVLRRYFAEVPFIIEKACELAESMLGEGSHGLSHTIRVLDLALQIGRVEGANLEVLALAAILHDIARPLEDKGRIKDHAQEGARIVRSFLSKLRYPHVDEVAHAIEAHRFSTNIEPRTLEAKILSDADKIDALGAIGIARVFMYAGEKGRSIEDSIKHFEEKILRLKDLMYTETGKRIAQERHKIVEEFVNILKKELILEHHHHHH”, for which the protein production entry is recorded as “not failed”. As for “MNKRFFPRIDLPLLMAIIPIMLLSSLTLWSASGFDESMLFKHLARCALTLVCILVMSSIPAASYQRSAPYLYFVAVSLLLAVALFGDSTNGSQRWLDIGFFRFQPSELIKLSIPIMIAWMLHLEGGRPDFRKIALCLMITLVPAGLIALQPDLDGAIFTVIYALFVLFFAGMSWKIIGGFVVSVLTLAPILWFFVMEAYQKSRVTQFLHPESDPLGSGYQIIQSLIAIGSGGMKGKGWMNATQGTLGFIPESHTDFIFSTYAEEWGFIGCVVLLALYLFITARVMLLACQSEHFFSRLVSGTLAMSFFLYAFINTGMVSGLLPVMGSPLPFFSYGGTAMLTQGICFGVIMSLCYSKYRNT”, the entry is “failed”; as for “MNKTMAKSLSVIIPACNEVDTISDVIQSVRPLNPVEIIVVANGCNDGTEDVADRLGCKVIKHTELLGNDVGRAVGAKHAIGDVLLFIDGDFAIPTSKLKLFLNPILYDQADVVLNNLDALFLKRQKTTSITVWRQILNAMLEREELKMNSLLDVPHALTKEVVQSIGYECFVNPIVAHLRLVQSKWRISRHCAIDVITPNKFRPFQHAAYGTNLSQSEKRMIGDHIEAVAERILSSDERGGYYDGNRKRDSVYHTLSFEEFYQGWGVTSDFYKGKQLSVVIPVQDEEKTIGNVIEELRKIEPFEIIVVVNGSSDKTKKIAKDKGATTIVYKEALGNDVGRSLGTYFAKGEIVLFIDGDFVIPASELYPFAKAIADGTDVALNDLNHYLDLRVPLHLVTAFKYALNLACDRKDLGVGSLIAVPNAFSRKCLKEIGYRSLLAPCVAQVKAILSGFEVACVSRVEVDKMNRIRPSEHFAKIGHPPAVLRIIGDHIEGLDQIIALTDNRGGFYDGNRKRDVLLEHHHHHH”, “failed”.
